Source: article PMC5932250 (Journal of the American Chemical Society, 2018)

Legend:
[1] = biological target: FITC-SgbA(leader) (Streptomyces globisporus subsp. globisporus NRRL B2293); assay: fluorescence polarisation
[2] = tested on: protein tyrosine phosphatase 1B (PTP1B); settings: at 50 μM; ref [48]; cited from earlier work

Row | Kd [1] [µM] | Substance | inhibition of PTP1B [2] [%]
1 | 0.357 | His6-SgbL(kinase 208-548) (domain or fragment) | 
2 | 0.351 | His6-SgbL(lyase-kinase 1-548) (domain or fragment) | 
3 |  | streptocollin | 33
